Article PMC7409020 (2020)
Square brackets hold non-standard residues; d marks the D form. Ends that are not written are not given here.

B1: A-[Ala^8]CooP (peptide)
peptide: ACGLSGLGAA-NH2
B2: A-[Ala^3]CooP (peptide)
peptide: ACGASGLGVA-NH2
B3: A-[Ala^4]CooP (peptide)
peptide: ACGLAGLGVA-NH2
B4: A-[Ala^2]CooP (peptide)
peptide: ACALSGLGVA-NH2
B5: A-[Ala^6]CooP (peptide)
peptide: ACGLSGAGVA-NH2
B6: RI-A-CooP (peptide)
peptide: [dA][dV]G[dL]G[dS][dL]G[dC][dA]-NH2
modifications: N-terminus assumed
SMILES: CC(C)C[C@@H](NC(=O)CNC(=O)[C@H](NC(=O)[C@@H](C)N)C(C)C)C(=O)NCC(=O)N[C@H](CO)C(=O)N[C@H](CC(C)C)C(=O)NCC(=O)N[C@H](CS)C(=O)N[C@H](C)C(N)=O

molecular target: recombinant N-terminal His6-tagged human FABP3 (human, NT-650-NHS red amine-reactive fluorescent dye (in the MST experiments only)); assay: MST
Sequence (P05413 whole entry): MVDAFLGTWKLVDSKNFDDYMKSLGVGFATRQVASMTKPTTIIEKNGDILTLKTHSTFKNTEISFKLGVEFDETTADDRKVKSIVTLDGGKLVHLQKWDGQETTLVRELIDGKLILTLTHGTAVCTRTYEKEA

Kd [nM]	Binder
120	B1
250	B2
110	B3
90	B4
190	B5
24000	B6
